Measured values published in article PMC2779898.

Columns and labels:
Assay in all cases: EMSA
PF1913 = target: T1, PF1913 (Pyrococcus furiosus, UniProt Q8TZS1 1-157)
T1 sequence: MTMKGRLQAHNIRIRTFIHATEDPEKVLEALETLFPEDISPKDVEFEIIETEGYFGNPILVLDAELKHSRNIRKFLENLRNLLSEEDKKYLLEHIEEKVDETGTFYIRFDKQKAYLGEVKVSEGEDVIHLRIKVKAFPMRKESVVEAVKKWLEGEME

PF1488 = target: T2, PF1488 (Pyrococcus furiosus, UniProt Q8U0U4 1-222)
T2 sequence: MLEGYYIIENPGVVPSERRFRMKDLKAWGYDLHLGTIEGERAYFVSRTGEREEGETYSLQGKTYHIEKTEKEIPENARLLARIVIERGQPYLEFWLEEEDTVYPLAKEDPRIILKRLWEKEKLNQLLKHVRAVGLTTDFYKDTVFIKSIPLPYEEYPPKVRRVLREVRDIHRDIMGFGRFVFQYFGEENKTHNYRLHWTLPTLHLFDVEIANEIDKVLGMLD

PF1142 = target: T3, PF1142 (Pyrococcus furiosus, UniProt Q8U1R3 1-280)
T3 sequence: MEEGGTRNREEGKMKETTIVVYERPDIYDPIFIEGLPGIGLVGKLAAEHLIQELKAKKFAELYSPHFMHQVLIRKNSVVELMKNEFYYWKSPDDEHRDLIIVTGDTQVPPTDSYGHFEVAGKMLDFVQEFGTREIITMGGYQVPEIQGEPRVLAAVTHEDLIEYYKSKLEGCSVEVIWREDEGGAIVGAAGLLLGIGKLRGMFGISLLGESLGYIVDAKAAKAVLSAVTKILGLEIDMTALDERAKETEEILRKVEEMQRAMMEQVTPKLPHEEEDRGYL

PF0547 = target: T4, PF0547 (Pyrococcus furiosus, UniProt Q8U3C3 1-448)
T4 sequence: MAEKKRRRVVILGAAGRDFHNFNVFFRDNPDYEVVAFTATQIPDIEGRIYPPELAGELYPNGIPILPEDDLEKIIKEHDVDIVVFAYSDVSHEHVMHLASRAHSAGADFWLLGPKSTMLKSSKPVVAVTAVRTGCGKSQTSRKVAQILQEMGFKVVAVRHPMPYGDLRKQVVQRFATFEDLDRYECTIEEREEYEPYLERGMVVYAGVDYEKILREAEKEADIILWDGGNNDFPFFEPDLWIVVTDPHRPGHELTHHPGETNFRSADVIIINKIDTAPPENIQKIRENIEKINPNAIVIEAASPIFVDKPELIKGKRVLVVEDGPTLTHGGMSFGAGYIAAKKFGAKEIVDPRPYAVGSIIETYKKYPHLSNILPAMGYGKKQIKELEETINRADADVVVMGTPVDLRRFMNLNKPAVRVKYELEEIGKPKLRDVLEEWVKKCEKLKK

Measured: binding result

GAAACAAGGAGAAAUGGUUCGUGUCCU (structured_RNA) [MPOR-27]
no binding: PF1913 | PF1488 | PF1142 | PF0547
